Test system: peptide library, one residue held at a place counted from the S/T acceptor
Assay: relative phosphorylation of the sub-library (ratio to the mean residue at this position); higher = residue favoured
Settings: human
Summary of the method: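 Spots on streptavidin membranes were phosphorimaged and quantified by densitometry to measure phosphorylation of biotinylated degenerate peptide sub-libraries by purified recombinant kinases, human or orthologue constructs. The reactions ran in 384-well plates for 90 min under kinase-specific conditions, with peptides at 50 μM and 50 μM ATP spiked with γ-32P-ATP. Relative sub-library phosphorylation is the ratio to the mean residue at that position.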

Sequence of PRKAA2, construct: Full length (P54646 whole entry, looked up): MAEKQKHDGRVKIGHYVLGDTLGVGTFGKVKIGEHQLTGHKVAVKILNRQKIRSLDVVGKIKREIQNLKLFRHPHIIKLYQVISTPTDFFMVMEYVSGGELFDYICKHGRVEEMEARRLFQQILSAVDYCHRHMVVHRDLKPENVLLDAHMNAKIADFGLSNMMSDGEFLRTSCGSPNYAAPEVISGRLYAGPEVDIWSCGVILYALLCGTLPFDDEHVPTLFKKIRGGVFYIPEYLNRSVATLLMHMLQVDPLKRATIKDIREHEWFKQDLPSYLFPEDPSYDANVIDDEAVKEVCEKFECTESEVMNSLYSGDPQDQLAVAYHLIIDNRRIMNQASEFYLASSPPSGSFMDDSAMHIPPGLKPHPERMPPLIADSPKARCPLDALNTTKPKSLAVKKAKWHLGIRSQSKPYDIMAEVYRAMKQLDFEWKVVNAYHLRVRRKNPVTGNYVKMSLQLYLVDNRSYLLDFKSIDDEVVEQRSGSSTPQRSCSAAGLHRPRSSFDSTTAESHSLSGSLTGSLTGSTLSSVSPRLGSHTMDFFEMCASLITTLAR

PRKAA2, construct: Full length (from UniProt P54646)
relative phosphorylation
Settings | at +1 | at +2 | at +3 | at +4 | at -1 | at -2 | at -3 | at -4 | at -5
A fixed | 1.05 | 1.53 | 0.803 | 0.597 | 1.14 | 1.34 | 0.699 | 1.19 | 0.889
D fixed | 0.54 | 0.575 | 1.53 | 0.614 | 0.593 | 0.42 | 0.258 | 0.419 | 0.336
E fixed | 0.708 | 0.492 | 0.805 | 0.454 | 0.495 | 0.427 | 0.368 | 0.546 | 0.308
F fixed | 1.88 | 0.855 | 1.01 | 1.27 | 0.734 | 0.655 | 0.4 | 0.67 | 1.3
G fixed | 0.711 | 0.724 | 0.933 | 0.637 | 1.38 | 0.933 | 0.739 | 1.13 | 0.815
H fixed | 1.15 | 1.48 | 2.39 | 0.747 | 1.12 | 1.18 | 1.26 | 1.26 | 0.8
I fixed | 0.565 | 1.19 | 0.531 | 2.12 | 0.339 | 0.925 | 0.335 | 0.577 | 1.42
K fixed | 1.01 | 0.689 | 1.01 | 0.777 | 1.9 | 1.62 | 2.75 | 2.22 | 1.27
L fixed | 0.814 | 1.29 | 0.677 | 2.7 | 0.714 | 0.548 | 0.398 | 0.692 | 1.64
M fixed | 1.33 | 0.833 | 0.693 | 2.04 | 0.978 | 0.575 | 0.473 | 0.928 | 1.51
N fixed | 0.942 | 1.18 | 1.69 | 0.864 | 1.16 | 1.93 | 0.821 | 0.801 | 0.684
P fixed | 0.269 | 1.37 | 0.41 | 0.789 | 1.51 | 0.826 | 0.991 | 1.31 | 0.964
Q fixed | 1.41 | 1.03 | 0.978 | 0.806 | 1.22 | 0.981 | 0.851 | 0.874 | 0.825
R fixed | 1.23 | 0.652 | 1.06 | 0.618 | 1.58 | 1.84 | 5.14 | 2.31 | 1.89
V fixed | 0.779 | 1.34 | 0.506 | 0.876 | 0.49 | 1.47 | 0.365 | 0.7 | 0.769
W fixed | 1.35 | 0.966 | 1.16 | 0.617 | 0.73 | 0.661 | 0.559 | 0.666 | 0.723
Y fixed | 1.27 | 0.806 | 0.808 | 0.479 | 0.903 | 0.676 | 0.596 | 0.713 | 0.854
pThr fixed | 0.69 | 0.503 | 0.35 | 0.709 | 0.324 | 0.504 | 0.49 | 0.644 | 0.588
pTyr fixed | 0.649 | 0.452 | 0.57 | 0.529 | 0.607 | 0.533 | 0.471 | 0.475 | 0.696

PRKCA, construct: Full length (from UniProt P17252)
relative phosphorylation
Settings | at +1 | at +2 | at +3 | at +4 | at -1 | at -2 | at -3 | at -4 | at -5
A fixed | 0.485 | 0.407 | 0.553 | 0.819 | 0.905 | 0.911 | 0.726 | 1.03 | 1.09
D fixed | 0.185 | 0.216 | 0.528 | 0.597 | 0.541 | 0.467 | 0.389 | 0.578 | 0.646
E fixed | 0.21 | 0.16 | 0.526 | 0.514 | 0.472 | 0.407 | 0.439 | 0.724 | 0.643
F fixed | 1.74 | 0.477 | 1.01 | 0.553 | 0.637 | 0.727 | 0.963 | 0.892 | 1.14
G fixed | 0.648 | 0.42 | 1.16 | 1.46 | 2.07 | 1.34 | 1.23 | 1.47 | 1.53
H fixed | 0.597 | 1.23 | 1.12 | 1.09 | 0.948 | 0.985 | 1.05 | 1.04 | 0.997
I fixed | 1.64 | 0.499 | 0.602 | 0.58 | 0.389 | 0.413 | 0.501 | 0.59 | 0.646
K fixed | 1.69 | 3.79 | 1.99 | 2.3 | 1.88 | 1.79 | 1.6 | 1.39 | 1.43
L fixed | 1.42 | 0.395 | 0.843 | 0.499 | 0.638 | 0.469 | 0.493 | 0.549 | 0.688
M fixed | 1.33 | 0.571 | 0.741 | 0.564 | 0.826 | 0.678 | 0.796 | 0.649 | 0.626
N fixed | 0.561 | 0.86 | 0.918 | 1.04 | 1.39 | 1.08 | 1.2 | 0.915 | 0.877
P fixed | 0.364 | 0.401 | 0.697 | 1.55 | 1.26 | 1.13 | 1.43 | 1.45 | 1.22
Q fixed | 1.41 | 0.684 | 1.03 | 0.926 | 1.04 | 1.15 | 0.886 | 1.12 | 0.716
R fixed | 1.87 | 4.65 | 2.46 | 2.26 | 2.01 | 3.23 | 3.44 | 1.59 | 1.84
V fixed | 1.26 | 0.464 | 0.662 | 0.703 | 0.661 | 0.522 | 0.447 | 0.92 | 0.638
W fixed | 0.729 | 0.586 | 0.972 | 0.797 | 0.475 | 1 | 0.589 | 1.28 | 1.38
Y fixed | 0.867 | 1.19 | 1.19 | 0.747 | 0.862 | 0.686 | 0.811 | 0.805 | 0.884
pThr fixed | 0.729 | 0.345 | 0.663 | 0.482 | 0.348 | 0.603 | 0.636 | 0.807 | 0.655
pTyr fixed | 0.38 | 0.31 | 0.58 | 0.427 | 0.983 | 0.679 | 0.98 | 0.802 | 1.11
